Measurements reported in patent US20240109972A1, “ANTIBODY AND TAXANE COMBINATION THERAPY” (Genmab A/S, priority 2020, published 2024).
“Also recorded” adds a separate entry of the source.

Assays:
[1] = tested on: effector memory CD8 T cells (CD8+CD45RA−CCR7− T cells); test: Proliferating (Ki67+) effector memory CD8 T cells in peripheral blood of patients (flow cytometry); settings: human, in vivo
Description: 100 μL of whole blood was added to fluorochrome-conjugated monoclonal antibodies that bind specifically to cell surface antigens: CD45RA-FITC (clone LEU-18, BD Biosciences cat. no. 335039), CCR7-BV510 (clone 3D12, BD Biosciences, cat. no. 563449), CD8-PerCP-Cy5.5 (clone RPA-T8, BD Biosciences, cat. no. 560662). After incubation on ice, the stained samples were treated with FACS Lysing Solution (BD Biosciences, Catalog No 349202) to lyse erythrocytes. Excess antibody and cell debris were removed by washing with Stain Buffer (BD Biosciences, cat. no. 554656). Following lyse/wash, cells were fixed and permeabilized by incubation with Permeabilizing Solution 2 buffer (BD Biosciences, cat. no. 340973). Next, cells were washed and resuspended in Stain Buffer and incubated on ice with antibody to Ki67 (BV421 B56, BD Biosciences, cat. no. 562899) to detect proliferating cells. After incubation, excess antibody was removed by washing with Stain Buffer. Cells were resuspended in Stain Buffer and acquired on a BD FACSCanto™ II flow cytometer (Becton Dickinson) within 1 hour of staining.

[2] = GEN1046 Phase I dose escalation, safety and dose finding; assay type: in vivo
From the text: The recommended phase 2 dose (RP2D) was based on a review of the available safety and dosing information and could be lower than the maximum tolerated dose (MTD).

GEN1046: PD-L1×4-1BB bispecific antibody: PD-L1-547-FEAL combined with CD137-009-HC7LC2-FEAR (SEQ ID NOs: 1, 5, 21, 19; 8, 12, 22, 20)
Cohort with maximal and more consistent modulation of proliferating CD8+ effector memory T cells [1]: 80 mg | Doses administered safely ([2]; 1Q3W): up to 1200 mg | Patients with dose limiting toxicities (DLTs) ([2]; dose escalation): Six | Severity of most adverse events ([2]; dose escalation): mild to moderate | Treatment-related bilirubin increases or Grade 4 transaminase elevations ([2]; dose escalation): No treatment-related bilirubin increases or Grade 4 transaminase elevations were observed | Maximum tolerated dose (MTD) ([2]; dose escalation, 1Q3W): not reached; also recorded: no MTD was determined | Most frequent adverse events ([2]; patients receiving GEN1046): transaminase elevations, followed by hyperthyroidism, fatigue, nausea, asthenia and neutrophil count decrease
